According to PMC3161508 (Advances in experimental medicine and biology, 2010):

Target: the molecule itself
Assay: non-reducing SDS-PAGE and Western blotting

B1: cone CNG channel β subunit CNGB3 (natural protein, mouse (endogenous in retina), UniProt Q9JJZ9 1-694, looked up)
chain: MLKSLTVKFNKVNPMEGRMEKKLCPNLSSLSQPTIAQGDNQSEKEPLRSRTPITFEKSHSKEDNSTGENSLRDFTPNPDPECRAELTRTMAEMEKTRTGKERPVSFKTKVLETSIINEYTDAHLHNLVERMRERTALYKKTLTEEENFPEVEASSQTAMSTNISPKQENNSKLKEHQDTFSFKPQRVPVKEHLRRMILPRSIDSYTDRVYLLWLLLVTIAYNWNCWLLPVRLVFPCQTPDNKNYWIITDIVCDIIYLCDILLIQPRLQFVRGGEIIVDSNELKRNYRSSTKFRMDVASLLPFEVLYIFFGVNPIFRANRILKYTSFFEFNHHLESIMDKAYVYRVIRTTGYLLFLLHINACVYYWASDYEGIGSTKWVYNGEGNKYLRCFYWAVRTLITIGGLPEPQTSFEIVFQFLNFFSGVFVFSSLIGQMRDVIGAATANQNYFQACMDHIIAYMNKYSIPQSVQYRVRTWLEYTWNSQRILDESNLLENLPTAMQLSIALDINFSIIDKVELFKGCDTQMIYDLLLRLKSTIYLPGDFVCKKGEIGKEMYIIKHGEVQVLGGPDGAQVLVTLKAGSVFGEISLLAKGGGNRRTADVVAHGFANLLTLDKKTLQEILLHYPTSKKLLMKKAKILLSQKGKTTQAIPARPGPAFLFPPKEETPRMLKVLLGNTGKVDLGRLLKGKRKTTTQK
stoichiometry N: 2
